For the assay, the target named is FtsZ (wild type, Caulobacter crescentus) (Caulobacter crescentus). Put plainly: BLI. For orientation: Biolayer interferometry detects binding as a change in optical thickness at a sensor tip.

The term Kd denotes the concentration at which binding is half-saturated. A low value points to higher affinity.

FtsZ (wild type, Caulobacter crescentus) (Caulobacter crescentus), sequence (B8H080 whole entry): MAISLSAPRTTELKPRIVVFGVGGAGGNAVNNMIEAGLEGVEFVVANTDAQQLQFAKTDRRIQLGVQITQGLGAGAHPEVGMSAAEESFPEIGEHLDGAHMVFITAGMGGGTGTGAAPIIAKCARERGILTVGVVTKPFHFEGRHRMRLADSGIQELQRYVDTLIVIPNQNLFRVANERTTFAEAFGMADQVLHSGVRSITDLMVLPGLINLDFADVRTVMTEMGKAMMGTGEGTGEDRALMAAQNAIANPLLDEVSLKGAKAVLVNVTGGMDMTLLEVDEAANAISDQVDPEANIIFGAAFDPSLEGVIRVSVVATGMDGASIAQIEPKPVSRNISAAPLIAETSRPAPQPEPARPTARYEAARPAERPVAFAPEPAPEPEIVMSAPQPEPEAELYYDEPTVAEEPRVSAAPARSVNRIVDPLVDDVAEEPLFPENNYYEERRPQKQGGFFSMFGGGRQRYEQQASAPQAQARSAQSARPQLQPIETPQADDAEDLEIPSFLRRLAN

In turn, MipZ-His6 (wild type) (enzyme) had a Kd of 11 µM.

The values are drawn from article PMC9897490.
